# The Human Domainome abundance scans (Beltran et al. 2025)
# ± gives the uncertainty stated by the source.
# B1: Connector enhancer of kinase suppressor of ras 2, residues 9 to 71; numbered along this chain, Q8WXI2 (parent)
# chain: SKWSPSQVVDWMKGLDDCLQQYIKNFEREKISGDQLLRITHQELEDLGVSRIGHQELILEAVD
# B2: Homeobox protein cut-like 1, residues 941 to 1008; numbered along this chain, P39880 (parent)
# chain: QEVDTIELTRQVKEKLAKNGICQRIFGEKVLGLSQGSVSDMLSRPKPWSKLTQKGREPFIRMQLWLNG
# Variants of: B1
# Test: abundance fitness (aPCA) (normalised: wild type 0, dead -1); higher = more abundant; growth selection in yeast, the domain comes from the species named
# Conditions: Homo sapiens
row,Variant,abundance fitness
1,D63Y,-0.096 ± 0.051

# Variants of: B2
# Test: as above
# Conditions: Homo sapiens
row,Variant,abundance fitness
1,AEVDTIELTRQVKEKLAKNGICQRIFGEKVLGLSQGSVSDMLSRPKPWSKLTQKGREPFIRMQLWLNG [Q1A],0.167 ± 0.1
2,CEVDTIELTRQVKEKLAKNGICQRIFGEKVLGLSQGSVSDMLSRPKPWSKLTQKGREPFIRMQLWLNG [Q1C],-0.062 ± 0.13
3,EEVDTIELTRQVKEKLAKNGICQRIFGEKVLGLSQGSVSDMLSRPKPWSKLTQKGREPFIRMQLWLNG [Q1E],0.214 ± 0.091
4,FEVDTIELTRQVKEKLAKNGICQRIFGEKVLGLSQGSVSDMLSRPKPWSKLTQKGREPFIRMQLWLNG [Q1F],-0.088 ± 0.2
5,GEVDTIELTRQVKEKLAKNGICQRIFGEKVLGLSQGSVSDMLSRPKPWSKLTQKGREPFIRMQLWLNG [Q1G],0.06 ± 0.086
6,HEVDTIELTRQVKEKLAKNGICQRIFGEKVLGLSQGSVSDMLSRPKPWSKLTQKGREPFIRMQLWLNG [Q1H],-0.673 ± 0.14
7,KEVDTIELTRQVKEKLAKNGICQRIFGEKVLGLSQGSVSDMLSRPKPWSKLTQKGREPFIRMQLWLNG [Q1K],0.076 ± 0.065
8,LEVDTIELTRQVKEKLAKNGICQRIFGEKVLGLSQGSVSDMLSRPKPWSKLTQKGREPFIRMQLWLNG [Q1L],-0.218 ± 0.055
9,MEVDTIELTRQVKEKLAKNGICQRIFGEKVLGLSQGSVSDMLSRPKPWSKLTQKGREPFIRMQLWLNG [Q1M],0.09 ± 0.081
10,NEVDTIELTRQVKEKLAKNGICQRIFGEKVLGLSQGSVSDMLSRPKPWSKLTQKGREPFIRMQLWLNG [Q1N],-0.412 ± 0.11
11,PEVDTIELTRQVKEKLAKNGICQRIFGEKVLGLSQGSVSDMLSRPKPWSKLTQKGREPFIRMQLWLNG [Q1P],-0.277 ± 0.086
12,REVDTIELTRQVKEKLAKNGICQRIFGEKVLGLSQGSVSDMLSRPKPWSKLTQKGREPFIRMQLWLNG [Q1R],-0.046 ± 0.052
13,SEVDTIELTRQVKEKLAKNGICQRIFGEKVLGLSQGSVSDMLSRPKPWSKLTQKGREPFIRMQLWLNG [Q1S],0.045 ± 0.076
14,TEVDTIELTRQVKEKLAKNGICQRIFGEKVLGLSQGSVSDMLSRPKPWSKLTQKGREPFIRMQLWLNG [Q1T],-0.038 ± 0.076
15,VEVDTIELTRQVKEKLAKNGICQRIFGEKVLGLSQGSVSDMLSRPKPWSKLTQKGREPFIRMQLWLNG [Q1V],-0.201 ± 0.088
16,YEVDTIELTRQVKEKLAKNGICQRIFGEKVLGLSQGSVSDMLSRPKPWSKLTQKGREPFIRMQLWLNG [Q1Y],-0.34 ± 0.13

row,Variant,abundance fitness
1,QAVDTIELTRQVKEKLAKNGICQRIFGEKVLGLSQGSVSDMLSRPKPWSKLTQKGREPFIRMQLWLNG [E2A],-0.273 ± 0.027
2,QCVDTIELTRQVKEKLAKNGICQRIFGEKVLGLSQGSVSDMLSRPKPWSKLTQKGREPFIRMQLWLNG [E2C],-0.375 ± 0.033
3,QDVDTIELTRQVKEKLAKNGICQRIFGEKVLGLSQGSVSDMLSRPKPWSKLTQKGREPFIRMQLWLNG [E2D],-0.283 ± 0.031
4,QGVDTIELTRQVKEKLAKNGICQRIFGEKVLGLSQGSVSDMLSRPKPWSKLTQKGREPFIRMQLWLNG [E2G],-0.081 ± 0.027
5,QHVDTIELTRQVKEKLAKNGICQRIFGEKVLGLSQGSVSDMLSRPKPWSKLTQKGREPFIRMQLWLNG [E2H],-0.317 ± 0.032
6,QIVDTIELTRQVKEKLAKNGICQRIFGEKVLGLSQGSVSDMLSRPKPWSKLTQKGREPFIRMQLWLNG [E2I],-0.085 ± 0.031
7,QKVDTIELTRQVKEKLAKNGICQRIFGEKVLGLSQGSVSDMLSRPKPWSKLTQKGREPFIRMQLWLNG [E2K],-0.074 ± 0.029
8,QLVDTIELTRQVKEKLAKNGICQRIFGEKVLGLSQGSVSDMLSRPKPWSKLTQKGREPFIRMQLWLNG [E2L],-0.376 ± 0.026
9,QMVDTIELTRQVKEKLAKNGICQRIFGEKVLGLSQGSVSDMLSRPKPWSKLTQKGREPFIRMQLWLNG [E2M],-0.09 ± 0.029
10,QNVDTIELTRQVKEKLAKNGICQRIFGEKVLGLSQGSVSDMLSRPKPWSKLTQKGREPFIRMQLWLNG [E2N],-0.227 ± 0.031
11,QPVDTIELTRQVKEKLAKNGICQRIFGEKVLGLSQGSVSDMLSRPKPWSKLTQKGREPFIRMQLWLNG [E2P],-0.206 ± 0.028
12,QQVDTIELTRQVKEKLAKNGICQRIFGEKVLGLSQGSVSDMLSRPKPWSKLTQKGREPFIRMQLWLNG [E2Q],-0.093 ± 0.029
13,QRVDTIELTRQVKEKLAKNGICQRIFGEKVLGLSQGSVSDMLSRPKPWSKLTQKGREPFIRMQLWLNG [E2R],-0.157 ± 0.027
14,QSVDTIELTRQVKEKLAKNGICQRIFGEKVLGLSQGSVSDMLSRPKPWSKLTQKGREPFIRMQLWLNG [E2S],-0.135 ± 0.027
15,QVVDTIELTRQVKEKLAKNGICQRIFGEKVLGLSQGSVSDMLSRPKPWSKLTQKGREPFIRMQLWLNG [E2V],-0.16 ± 0.026
